According to article PMC5741687, “A Novel Role for CSRP1 in a Lebanese Family with Congenital Cardiac Defects” (Frontiers in Genetics, 2017):
Blank lines part the entries; values can stand above or below the molecule they belong to.

Experiments:
HA-tagged GATA4 [1] = molecular target: HA-tagged GATA4 (UniProt P43694); experiment: co-IP; nuclear extracts (200 ug protein) of HEK293 cells transiently overexpressing both proteins; anti-HA on Dynabeads Protein G, 2 h at RT, washed three times with PBS; blot with anti-Flag, then stripped and probed with anti-HA
[2] = molecular target: HA-tagged serum response factor (SRF) (UniProt P11831); experiment: as above
HA-tagged TBX5 [3] = molecular target: HA-tagged TBX5 (UniProt Q99593); experiment: as above
HA-tagged GATA6 = HA-tagged GATA6 (UniProt Q92908); experiment: as above
HA-tagged GATA4 [4] = molecular target: HA-tagged GATA4 (UniProt P43694)
[5] = molecular target: HA-tagged serum response factor (SRF) (UniProt P11831)
[6] = molecular target: T1, HA-tagged serum response factor (SRF) (UniProt P11831 1-508); experiment: cell-based or functional assay
T1 sequence (looked up): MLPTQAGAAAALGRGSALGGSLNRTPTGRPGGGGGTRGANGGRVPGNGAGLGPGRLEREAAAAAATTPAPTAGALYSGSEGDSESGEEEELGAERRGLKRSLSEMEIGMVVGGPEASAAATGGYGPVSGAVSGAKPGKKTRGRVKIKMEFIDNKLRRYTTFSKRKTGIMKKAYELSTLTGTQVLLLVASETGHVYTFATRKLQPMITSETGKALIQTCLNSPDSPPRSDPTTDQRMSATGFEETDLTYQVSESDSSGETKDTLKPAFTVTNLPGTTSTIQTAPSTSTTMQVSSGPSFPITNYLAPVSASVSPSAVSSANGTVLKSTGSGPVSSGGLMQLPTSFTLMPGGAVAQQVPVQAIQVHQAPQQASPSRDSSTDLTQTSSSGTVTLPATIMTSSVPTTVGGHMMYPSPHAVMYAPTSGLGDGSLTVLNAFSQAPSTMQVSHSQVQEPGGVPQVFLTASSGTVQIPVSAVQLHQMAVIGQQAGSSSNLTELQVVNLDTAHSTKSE

HA-tagged GATA4 [7] = molecular target: HA-tagged GATA4 (UniProt P43694 1-442); experiment: cell-based or functional assay
HA-tagged TBX5 [8] = molecular target: T2, HA-tagged TBX5 (UniProt Q99593 1-518); experiment: cell-based or functional assay
T2 sequence (looked up): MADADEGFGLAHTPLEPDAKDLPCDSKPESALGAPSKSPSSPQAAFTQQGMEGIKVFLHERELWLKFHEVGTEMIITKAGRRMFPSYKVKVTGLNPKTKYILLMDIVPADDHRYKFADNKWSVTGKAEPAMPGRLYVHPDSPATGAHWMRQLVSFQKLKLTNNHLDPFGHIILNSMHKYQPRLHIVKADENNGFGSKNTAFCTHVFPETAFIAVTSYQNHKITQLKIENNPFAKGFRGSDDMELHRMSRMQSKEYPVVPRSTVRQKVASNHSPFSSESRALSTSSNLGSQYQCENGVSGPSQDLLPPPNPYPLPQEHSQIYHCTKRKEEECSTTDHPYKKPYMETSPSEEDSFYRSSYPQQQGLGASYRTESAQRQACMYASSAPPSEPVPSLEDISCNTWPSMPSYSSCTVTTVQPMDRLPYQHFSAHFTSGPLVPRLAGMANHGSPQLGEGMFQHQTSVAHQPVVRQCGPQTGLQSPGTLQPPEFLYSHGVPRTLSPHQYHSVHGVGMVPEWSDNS

HA-tagged GATA4 (UniProt P43694), sequence (P43694 whole entry): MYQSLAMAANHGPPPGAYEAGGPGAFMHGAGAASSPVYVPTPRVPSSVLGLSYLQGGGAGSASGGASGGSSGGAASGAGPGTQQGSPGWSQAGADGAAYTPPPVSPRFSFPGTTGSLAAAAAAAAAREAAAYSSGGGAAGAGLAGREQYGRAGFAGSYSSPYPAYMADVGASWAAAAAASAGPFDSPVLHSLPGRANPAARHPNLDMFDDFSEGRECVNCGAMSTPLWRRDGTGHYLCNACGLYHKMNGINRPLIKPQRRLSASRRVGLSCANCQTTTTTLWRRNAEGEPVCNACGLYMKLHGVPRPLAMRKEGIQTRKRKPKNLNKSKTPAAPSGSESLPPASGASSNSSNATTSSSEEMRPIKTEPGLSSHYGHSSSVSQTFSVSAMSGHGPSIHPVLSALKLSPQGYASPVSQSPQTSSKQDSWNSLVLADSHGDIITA
HA-tagged GATA6, sequence (Q92908 whole entry): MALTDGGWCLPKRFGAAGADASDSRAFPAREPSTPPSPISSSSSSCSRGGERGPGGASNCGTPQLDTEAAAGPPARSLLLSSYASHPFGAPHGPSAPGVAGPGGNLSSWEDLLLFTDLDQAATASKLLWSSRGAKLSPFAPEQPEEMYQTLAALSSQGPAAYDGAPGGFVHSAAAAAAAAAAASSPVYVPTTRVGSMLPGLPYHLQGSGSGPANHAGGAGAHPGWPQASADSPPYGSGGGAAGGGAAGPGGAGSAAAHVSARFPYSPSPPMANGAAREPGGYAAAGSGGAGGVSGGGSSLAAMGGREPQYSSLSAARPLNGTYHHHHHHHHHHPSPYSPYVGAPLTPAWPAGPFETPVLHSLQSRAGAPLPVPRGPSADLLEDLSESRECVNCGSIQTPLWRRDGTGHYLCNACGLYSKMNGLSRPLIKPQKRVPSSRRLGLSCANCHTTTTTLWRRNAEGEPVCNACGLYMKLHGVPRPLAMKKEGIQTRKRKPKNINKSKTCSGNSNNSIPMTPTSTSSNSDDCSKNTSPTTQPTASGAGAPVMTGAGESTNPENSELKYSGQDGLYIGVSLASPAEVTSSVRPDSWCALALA
HA-tagged GATA4 (UniProt P43694 1-442), sequence (P43694 whole entry): as the sequence (P43694 whole entry) above

percent inhibition of the co-precipitation against wild-type CSRP1 (HA-tagged GATA4 [1]): < 85%
percent inhibition of the co-precipitation against wild-type CSRP1 [2]: 82%
percent decrease of the co-precipitation against wild-type CSRP1 (HA-tagged TBX5 [3]): < 55.3%
percent increase of the co-precipitation against wild-type CSRP1 (HA-tagged GATA6): 15%
synergy on the NPPA, VEGF and NOS3 luciferase promoters, co-transfection assays, fold activation (promoter of the number not told); synergy completely lost (HA-tagged GATA4 [4]): 5 fold
percent inhibition of the synergy with SRF over the NPPA-luciferase promoter, co-transfection in HEK293 cells [5]: 50%
Molecule: Flag-tagged p.E154Vfs*99 CSRP1 mutant (from UniProt P21291 1-153) (natural protein)

synergistic activation of the NOS3-luciferase promoter, co-transfection in HEK293 cells, fold activation [6]: 14 fold
synergistic activation of the NPPA-luciferase promoter, co-transfection in HEK293 cells, fold activation [6]: 100 fold
synergistic activation of the VEGF-luciferase promoter, co-transfection in HEK293 cells, fold activation [6]: 22.3 fold
synergy on the NPPA, VEGF and NOS3 luciferase promoters, co-transfection assays, fold activation (promoter of the number not told) (HA-tagged GATA4 [7]): 22 fold
synergistic activation of the NPPA, VEGF and NOS3 luciferase promoters, co-transfection in HEK293 (CSRP1 400 and 600 ng, TBX5 200 and 400 ng); highest value on the NOS3 promoter (HA-tagged TBX5 [8]): 40 fold
B1: Flag-tagged wild type human CSRP1 (natural protein, UniProt P21291 1-193, looked up)
chain: MPNWGGGKKCGVCQKTVYFAEEVQCEGNSFHKSCFLCMVCKKNLDSTTVAVHGEEIYCKSCYGKKYGPKGYGYGQGAGTLSTDKGESLGIKHEEAPGHRPTTNPNASKFAQKIGGSERCPRCSQAVYAAEKVIGAGKSWHKACFRCAKCGKGLESTTLADKDGEIYCKGCYAKNFGPKGFGFGQGAGALVHSE
